Literature values in article PMC12023029.

Target: His50 (UniProt position 50, KEGVVHGVATV)
Experiment: NMR (per title of cited reference 59)
Conditions: free monomer, disordered

In the case of “alpha-synuclein (aSyn) (Homo sapiens (inferred; the article does not name the species and discusses Parkinson's disease patients))”, the pKa (150 mM salt, high salt) is listed as 6.5 and the pKa (low salt, article gives '4' mM as the lower end of the salt change) is listed as 6.8.
